Reference: publication PMC12851022, “Targeting the Spliceosomal Protein USP39 Through Allosteric Ligands and PROTAC‐Induced Degradation” (Angewandte Chemie (International Ed. in English), 2025)

Key:
[1] = target: VHL_WT-EGFP (UniProt P40337)
[2] = target: VHL_m (Δ91–121) (UniProt P40337)
VHL_m (Δ91–121), sequence (P40337 other isoform, or with tags, fused parts or gaps mutant): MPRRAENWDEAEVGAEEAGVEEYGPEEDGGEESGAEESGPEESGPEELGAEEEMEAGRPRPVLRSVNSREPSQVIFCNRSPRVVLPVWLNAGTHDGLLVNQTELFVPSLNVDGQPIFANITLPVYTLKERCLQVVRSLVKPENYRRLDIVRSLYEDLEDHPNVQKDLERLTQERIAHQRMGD

VHL_WT-EGFP, sequence (P40337 whole entry): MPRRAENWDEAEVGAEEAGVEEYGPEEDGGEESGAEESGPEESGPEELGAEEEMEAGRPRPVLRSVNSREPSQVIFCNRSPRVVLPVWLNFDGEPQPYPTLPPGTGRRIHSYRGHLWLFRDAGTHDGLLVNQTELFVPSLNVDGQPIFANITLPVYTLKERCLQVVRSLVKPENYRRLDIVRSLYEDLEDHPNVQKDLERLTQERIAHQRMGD

DC50 of USP39 PROTAC V1-induced degradation of USP39-OFP, fluorescence assay in HEK293T cells co-expressing USP39 OFP and VHL WT-EGFP [1]: 1 nM
fold reduction of USP39 PROTAC V1-induced degradation of USP39-OFP against cells with VHL WT-EGFP, fluorescence assay in HEK293T cells expressing VHL m [2]: > 80 fold
B1: USP39-OFP (natural protein)
chain: MSGRSKRESRGSTRGKRESESRGSSGRVKRERDREREPEAASSRGSPVRVKREFEPASAREAPASVVPFVRVKREREVDEDSEPEREVRAKNGRVDSEDRRSRHCPYLDTINRSVLDFDFEKLCSISLSHINAYACLVCGKYFQGRGLKSHAYIHSVQFSHHVFLNLHTLKFYCLPDNYEIIDSSLEDITYVLKPTFTKQQIANLDKQAKLSRAYDGTTYLPGIVGLNNIKANDYANAVLQALSNVPPLRNYFLEEDNYKNIKRPPGDIMFLLVQRFGELMRKLWNPRNFKAHVSPHEMLQAVVLCSKKTFQITKQGDGVDFLSWFLNALHSALGGTKKKKKTIVTDVFQGSMRIFTKKLPHPDLPAEEKEQLLHNDEYQETMVESTFMYLTLDLPTAPLYKDEKEQLIIPQVPLFNILAKFNGITEKEYKTYKENFLKRFQLTKLPPYLIFCIKRFTKNNFFVEKNPTIVNFPITNVDLREYLSEEVQAVHKNTTYDLIANIVHDGKPSEGSYRIHVLHHGTGKWYELQDLQVTDILPQMITLSEAYIQIWKRRDNDETNQQGA
